From the nanobody polyreactivity screen of Harvey et al. (2022)

Test: yeast display, Sf9 membrane polyspecificity reagent, FACS + sequencing; frameworks hold sequencing errors
Summary of the method: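 Using colony PCR, genes from sorted yeast display clones were amplified, then sequenced on MiSeq at 2 × 250 and filtered by CDR length. The clones had been stained with 10% biotinylated, detergent-solubilized Sf9 membrane reagent for 1 hour at 4 °C and sorted by FACS into low and high (top ~1%) gates on anti-HA and streptavidin fluorescence. Polyreactivity labels come from the gate of origin.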

Sequence | polyreactivity (PSR sort gate)
QVQLVESGGGLVQAGGILRLSCAASGSTFTDSDMGWYRQAPGKERELVAAITSGGSTNYADSVKGRFTISLDNAKYTVYLPMNSLKPEDSAVYYCAAADADRKYDYWGQGTQVTVSS | low polyreactivity
QVQLVESGGGLVQAGGILRLSCAASGSTISYNAMGWYRQAPGKERELVAAINYSGGNTNYADSVKGRFTISRDNAKNTVYLQMNSLKPEDTAVYYCAARWWSGYGYWGQGTQVTVSS | high polyreactivity
QVQLVESGGGLVQAGGILRLSCASSGNIFDRYAMGWYRQAPGKERELVAGITWSGGSTYYADSVKGRFTISRDNEKNTVYLQMNSLKPEDTAVYYCGQANYYWGQGTQVTVSA | low polyreactivity
QVQLVESGGGLVQAGGILRLSCSASGRTLPAYVMGWYRQAPGKERELVAAITSGGGGTYFADSVKGRFTISRDNAKNTVYLQMNSMKPEDTAVYYCATTGNFFHYVYDFDYYYWGQGTQVTLSS | low polyreactivity
QVQLVESGGGLVQAGGILRLSSAASGRTILSYAMGWYRQAPGKERELVAAITRSGGGTFYADSVKGRFTLSRDNAKNTVYVQMNSLKPEDTAVYYCAARYYNYASPTRFKYNYWGQGTQVTVSS | high polyreactivity
QVQLVESGGGLVQAGGILSLSCAASGFIFLYNMGWYRQAPGKEWQLVADISTGVSTNYADSVKGRFTISRDNAKNSVYLQMNSLKPEDTAVYYCAAVYYNGYQYEPWYDYWGQGTQVTVSS | low polyreactivity
QVQLVESGGGLVQAGGPLRLSCAASGRIFWPYTMGWYRQTPGKERELVAVITYSGGSTYYADSVKGRFTISRDNAKNTVYFQMNSLKPEDTAVYYCNAGIRFYLHAHGYYWGQGTQVTVSS | high polyreactivity
QVQLVESGGGLVQAGGRHRLSCAASGSTLTRNTMGWYRQAPGIQRELVATITRSGGSTYYADSVKGRFTISRDNAKNTVYLQMNSLKPEDTAVYYCAVRRQTFRYVYPGMDYWGQGTQETVSS | high polyreactivity
QVQLVESGGGLVQAGGRHRLTCAASGRILGYYAMGWYRQAPGKQRELVAAITRGGTTNYADSVKGRFTISRDNAMNTVYLQKNSQKPEDSAGYYCAADLARYGKRYDFWGQGTQVTLSS | low polyreactivity
QVQLVESGGGLVQAGGRLLLSCAASGFIFYSNAMGWYRQAPGKERELVAAISRSGGSTYYADSVKGRFTISRDNAMNTVFLQMNSLKPEDTAVYYCNADYVYRRYGYWGQGTQVNVSS | high polyreactivity
QVQLVESGGGLVQAGGRLLLSCAASGFTFPRYVMGWYRQAPGKEREFVAAITFSGGSTYYADSVKGRFTISRDNAKNSVYLQMNSLKPEDTAVYYCAAGASLWRLGLKMGYWGQGTQVTVSS | low polyreactivity
QVQLVESGGGLVQAGGRLRFSCAASGFIFRYYAMGCYRQAPGKERELVAAIDYSGGSTNYADSVKGRFTISRDNAKNTVYLQMNSLKPEETAVYYCNAEYTWHRGYDYWGQGTLVTVSS | low polyreactivity
QVQLVESGGGLVQAGGRLRFSCAASGSIFEYYTMGWYRQAPGKERELVAAISDGGSTYYADSVKGRFTISRDNAKNTVYLQMNSLKPDDTAFYYCAAEYQQDFWVAVDYWGQGTQLTVSS | low polyreactivity
QVQLVESGGGLVQAGGRLRIICAASGYIFRFNAMGWYRQAPGKERELVAVITKSGGSTYYADSVKGRFTISRDNAKNTVYLQMNRLKPEDSAVYYCNADRFYIDYTNTYDSIRDYWGQGTQVTVSS | low polyreactivity
QVQLVESGGGLVQAGGRLRISCAASGRTFQVYTIGWYRQAPGKERELVAAITWNGGRSRYADSVKGRFTISRDNAKNTVYLQMNRLKPEDTAVYYCNAGSTELGWTWELDYWGQGTQVTVSS | high polyreactivity
QVQLVESGGGLVQAGGRLRISCAASGRTFSHNTMGWYRQAPGKERELVAAITGSGASTYYADSVKGRFTISRDNAKNTVYLQMNSLKPEDTAVDYCAKVSRQSWDEYDTWGQGTQVTVSS | low polyreactivity
QVQLVESGGGLVQAGGRLRISCAASGSTFKANAMGWYRQSPGKERELVASIRFSAGSTYYADSVKGRFTISRDTAKNTVYLEMNRLKPEDTAVYYCAAGRHVLKRRYDYWGQGTQVTVSS | low polyreactivity
QVQLVESGGGLVQAGGRLRISCAASGTIFYSYEMVWYRKAPAKERELVAAITQSGSSTYYADSVKGRFTISRDNAKNTVYLQMNSLKPEDTAVYYCAAVSRRHPTMSDYWGQGTQVTVSS | high polyreactivity
QVQLVESGGGLVQAGGRLRLRCAASGHIFYYYTLGWYRQAPGKERELVAGITIGGSTNYADSVKGRFTISRDNAKNTVYLQMNSLKPEDTAVYYCNVVKYVYIYSYWEYYYWGQGTQVTVSS | low polyreactivity
QVQLVESGGGLVQAGGRLRLRCAASGSIFEPNAMGWYRQSPWKERELVATIRDSGGRTYYADSVKGRFTISRDNAKNTVYLQMNSLKPEDTAVYYCAARRYLGWFSYRLYDYWGQGTQVTVSS | high polyreactivity
QVQLVESGGGLVQAGGRLRLRCAASGSIFYAYDRGWYRQAPGKERELVAAINWSGDSTYYADSVKGRFTISRDNAKNTVDLQMNSLKPEDTALYYCAAVSGSGDSGEYDYWGQGTQVTVSS | low polyreactivity
QVQLVESGGGLVQAGGRLRLSCAASGFIFTEYAMGWYRQSPGKERELVAAINSGGRTKYADSVKGRFTISRDNAKNTVFLQMNSLKPEDTAVYYCAARRFPTYDYWGQGTQVTVSS | high polyreactivity

Sequence | polyreactivity (PSR sort gate)
QVQLVESGGGLVQAGGRLRLSCAASGFTFKKNAMGWYRQAPGKERELVAAIRSGTSTKYADSVKGRFTISRDNAKNTVYLQMNSLKPEDTAVYYCAAEEPEYLATWRNRRYDYWGQGTQVTVSS | low polyreactivity
QVQLVESGGGLVQAGGRLRLSCAASGFTFTNYAMGRYRQAPGKERELVAAISWNGGSTYYADSVKGRFTISRDNAKNTVYLQMNSLKPEDTAVYYCNAYDYQYFYGYEYDYWGQGTQVTVSS | high polyreactivity
QVQLVESGGGLVQAGGRLRLSCAASGFTFTPYAMGWYRQAPGTERELVAAISWGDGSTYYADSVKGRFTISRDNAKNTVYLQMNSLKPEDTAVYYCAAYRGPRIYRYDYWGQGTQVTVSS | high polyreactivity
QVQLVESGGGLVQAGGRLRLSCAASGFTFYRYAMGWYRQAPGKERELVAAITDSGDSTYYADSVKGRFTISRDNAKNTVYLQMNSVKPEDTAVYYCNTLVDLDGFEYYYWGQGTQVTVSS | high polyreactivity
QVQLVESGGGLVQAGGRLRLSCAASGFTIRWYTMGWYRQAPGKERELVAAISRGGSTNYADSVKGRFTISRDNAKNTVYLQMNSLKPEDTAVYYCAATVYAFTYPYDYWGQGTQVTVSS | high polyreactivity
QVQLVESGGGLVQAGGRLRLSCAASGFTLWGYAMGWYRQAPGKERELVASMSWSGGGTNYADSVKGRFTISRDNAKNTVYLQMNSLKPEDPAVYYCAAQYYTVSRYYGVERKFGYWGQGSQVTVSS | high polyreactivity
QVQLVESGGGLVQAGGRLRLSCAASGGIFGQNAMRWYRQAPGKERELVAGISASGGSTYYADSVKGRFTISRDNAKNTVYLQRNSLKPEDTAVYYCAARTKRRRYDYWGQGTQVTVSS | high polyreactivity
QVQLVESGGGLVQAGGRLRLSCAASGGIFIKNAMGWYRQAPGKERELVAGISSGGNTYYADSVKGRFTISRDNAKNTVYLQMNSLKPEDTAVYYCAVRYYRRFGPLYDSWGQGTHVTVSS | low polyreactivity
QVQLVESGGGLVQAGGRLRLSCAASGGIIWAYAMGRYRQAPGKERELVAAISSSTGTTYYADSVKGRFTISRDNAKNTVYLQMNSLKPEETAVYYCAAYAYIGDYVSYYGGDYWGQGTQVTVSS | low polyreactivity
QVQLVESGGGLVQAGGRLRLSCAASGGTFSSNAMGWYRQSPGKERELVAAITWSGGSTYYADSVKGRFTISRDNAKNTVYLQMNSLKPEDTAVYYCNARNQWRTVGKYDYWGQGTQVTVSS | low polyreactivity
QVQLVESGGGLVQAGGRLRLSCAASGIIFKYNAMGWYIQAPGKEREFVAAITGSGGSTYYADSVKGRFTISRDNAKNTVYLQMNSLKPEDTAVYYCARPQWRDWYGYWGQGTQVTVSS | low polyreactivity
QVQLVESGGGLVQAGGRLRLSCAASGIIFTPYAMGRYRQAPGKERELVAAISWIGGRTYYADSVKGRFTISRDKAKNTVYLQMNSLKPEDTAVYYCAASYRAWSGNYWGQGTQVTVSS | high polyreactivity
QVQLVESGGGLVQAGGRLRLSCAASGITFYDYAMGWYRQAHGKERELVAVITRRGGSTYYAHSVKGRFTISRDNAKNTVYLQMNSLKPEDTAVYYCNADRTAPERYSRVPSSDSWGQGTQVTVSS | high polyreactivity
QVQLVESGGGLVQAGGRLRLSCAASGITSLDNAMGWYRQAPGKQRELVAGIKSGGSTNYADSVKGRFTISRDNAKNTVYLQMNSLKPEDTAVYYCAADDFIGSGRLVARGRYDYWGQGTQVTVSS | low polyreactivity
QVQLVESGGGLVQAGGRLRLSCAASGLIFPAYAMGWYRQAPGKERELVATITWRGGSTYYADSVKGRFTISRDNAKNTVYLQMNSLKPEDTAVDYCATRPRYYYFRYDYWGQGTQVTVSS | high polyreactivity
QVQLVESGGGLVQAGGRLRLSCAASGLIFRAYAMGWYRQAPGKERELVAAISRRGGSTYYADSVKGRFTISRDNAKNTVYLQMNSLKPEDTAVYYCAATSRVSKSHLYGYWGQGTQVTVSS | high polyreactivity
QVQLVESGGGLVQAGGRLRLSCAASGLIFWFNTMGWYRQAPGKERELVAAITSGGGSTYYADSVKGRFTISRDNAKNTVYLQMNSLKPEDTAVYYCNAGAGRWRARQWHDYWGQGTQVTVSS | low polyreactivity
QVQLVESGGGLVQAGGRLRLSCAASGLIFYVYAMGWYRQEPGKERELVASITWSGGRTYYADSVKGRFTISRDNEKNTVYLQMNSLKPEDTAVYYCATDLIQGAAPFRYDYWGQGTQVTVSS | low polyreactivity
QVQLVESGGGLVQAGGRLRLSCAASGLTFGGNAMGWYRQAPGKERELVAAISWSDDTTDYADSVKGLFTISRDNAKNTVYFQMNRLKPEDTAVYYCAARLPFEHVDYWGQGTQVTVSS | low polyreactivity
QVQLVESGGGLVQAGGRLRLSCAASGRIFATNAMGWYRQAPGKERELVATITRSAGRTYYADSVKGRFTISRDNAKNTVYLQMNSLKPEDTAVYYCAADGYSTAVDDTVRYIVEYEFWGQGTQVTVSS | low polyreactivity
QVQLVESGGGLVQAGGRLRLSCAASGRIFDRYAMGWYRQAPGKERELVAGISFSGGRTYYADSVKGRFTISRDNAKNTVYLQMNSLKPEDTAVYYCNTVTSGFLSYDYWGQGTQVTVSS | high polyreactivity
